Data: patent publication US20110165066A1 (AbbVie / Abbott, published 2011)
Residue numbers refer to the chain shown, from its start.

Key:
[1] = target: T1, mouse IL-13 (mouse, UniProt P20109 26-131, limits assumed); assay: indirect ELISA, captured mAb, biotinylated mouse IL-13
T1 construct: also called mIL-13; murine IL-13
T1 sequence (looked up): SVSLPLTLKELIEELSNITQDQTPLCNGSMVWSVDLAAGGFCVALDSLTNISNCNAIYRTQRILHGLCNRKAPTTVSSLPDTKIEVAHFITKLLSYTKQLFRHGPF
Experimental: Murine anti-human IL-13 mAbs were prepared at various concentrations ranging from 0.1 to 100 ng/ml in PBS containing 0.1% BSA; 50 ul of each antibody dilution was added to the coated ELISA plate and incubated for 1 hour at room temperature. Wells were washed 3 times with PBS containing 0.05% Tween-20. […] Wells were washed 3 times with PBS containing 0.05% Tween-20. Streptavidin HRP (Pierce #21126, Rockland, Ill.) was diluted 1:20000 in PBS containing 0.1% BSA; […] was added and the plates incubated for 1 hour at room temperature. Plates were washed 3 times with PBS containing 0.05% Tween-20. Fifty microliters of TMB solution (Sigma # T0440, St. Louis, Mo.) was added to each well and incubated for 10 minutes at room temperature. The reaction was stopped by addition of 1N sulphuric acid. Plates were read spectrophotmetrically at a wavelength of 450 nm.

[2] = target: T2, human IL-13 variant (R130Q) (human, UniProt P35225 35-146); assay: cell-based or functional assay
T2 sequence (P35225 35-146 limits assumed, stated change not applied): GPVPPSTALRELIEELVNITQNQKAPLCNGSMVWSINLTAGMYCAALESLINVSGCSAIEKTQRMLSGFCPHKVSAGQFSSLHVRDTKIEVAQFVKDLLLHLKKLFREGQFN

[3] = target: T3, human IL-13 wild type (human, UniProt P35225 35-146); assay: cell-based or functional assay
T3 sequence (P35225 other isoform, or with tags, fused parts or gaps limits assumed): as the sequence (P35225 35-146 limits assumed, stated change not applied) above, with Q110R counted along it

[4] = target: cynomolgus IL-13 (cynomolgus, UniProt Q0PW92 21-132); assay: cell-based or functional assay
cynomolgus IL-13, sequence (Q0PW92 entry or part of it): as the sequence (P35225 35-146 limits assumed, stated change not applied) above, with G1S, R10K, M42V, S67N, H83R, L100V counted along it

[5] = target: T2, human IL-13 variant (R130Q); assay: SPR (Biacore), mAb captured, IL-13 as analyte
Experimental: (§1) The BIACORE assay (Biacore, Inc, Piscataway, N.J.) determines the affinity of antibodies with kinetic measurements of on-, off-rate constants. […] All chemicals were obtained from Biacore® AB (Uppsala, Sweden) or otherwise from a different source as described in the text. Approximately 5000 RU of goat anti-mouse IgG, (Fcγ), fragment specific polyclonal antibody (Pierce Biotechnology Inc, Rockford, Ill.) diluted in 10 mM sodium acetate (pH 4.5) was directly immobilized across a CM5 research grade biosensor chip using a standard amine coupling kit according to manufacturer's instructions and procedures at 25 μg/ml. Unreacted moieties on the biosensor surface were blocked with ethanolamine. Modified carboxymethyl dextran surface in flowcell 2 and 4 was used as a reaction surface. Unmodified carboxymethyl dextran without goat anti-mouse IgG in flow cell 1 and 3 was used as the reference surface. For kinetic analysis, rate equations derived from the 1:1 Langmuir binding model were fitted simultaneously to association and dissociation phases of all eight injections (using global fit analysis) with the use of Biaevaluation 4.0.1 software. Purified antibodies were diluted in HEPES-buffered saline for capture across goat anti-mouse IgG specific reaction surfaces. Mouse antibodies to be captured as a ligand (25 μg/ml) were injected over reaction matrices at a flow rate of 5 μl/min. The association and dissociation rate constants, kₒₙ (unit M⁻¹s⁻¹) and koff (unit s⁻¹) were determined under a continuous flow rate of 25 μl/min Rate constants were derived by making kinetic binding measurements at ten different antigen concentrations ranging from 10-200 nM. […] Binding is recorded as a function of time and kinetic rate constants are calculated.

[6] = target: T3, human IL-13 wild type; assay: SPR (Biacore), mAb captured, IL-13 as analyte
Experimental: as §1

B1: 5F1 (antibody, V domains shown)
VH: QVQLQQSGAELARPGTSVKLSCKASGYTFTTYGISWVKQRTGQGLEWIGEIYPGSYNTYYNEKFRGKATLTADKSSSTAYMQLSSLTSEDSAVYFCSRWRTSYFSDYGYFDYWGQGTTLTVSS
VL: DVVMTQTPLSLPVSLGDQASISCRSSQSLVHSHGNTYLHWYLQKPGQSPKLLIYTVSNRFSGVPDRFSGSGSGTDFTLKISRVEAEDLGVYFCSQSTHVPYTFGGGTKLEIKR
For B1, the binding result [1] was “no binding (tested: 0.1 to 100 ng/ml)”, the “Average IC50, IL-13-induced TARC production by A-549 cells” value (shortened to “Average IC50”) [2] was 0.09 nM and the “Average IC50” value [3] was 0.097 nM. For the same binder, the “Average IC50” value [4] was 1.88 nM, the Kd [5] was 0.0314 nM and the koff [5] was 1.57e-05 s⁻¹. The kon [5] was 502000 M⁻¹ s⁻¹, the Kd [6] was 0.0289 nM and the koff [6] was 2.24e-05 s⁻¹. It also gave a kon [6] of 774000 M⁻¹ s⁻¹.

B2: 5G1 (antibody, V domains shown)
VH: B1 VH with I34V, S55N
VL: B1 VL
In the case of B2, the binding result [1] is reported as “no binding (tested: 0.1 to 100 ng/ml)”, the “Average IC50” value [2] is reported as 0.048 nM and the “Average IC50” value [3] is reported as 0.076 nM. The “Average IC50” value [4] was 0.612 nM, the Kd [5] was 0.13 nM and the koff [5] was 2.05e-05 s⁻¹. For the same binder, the kon [5] was 157000 M⁻¹ s⁻¹, the Kd [6] was 0.00877 nM and the koff [6] was 5.49e-06 s⁻¹. For the same binder, the kon [6] was 626000 M⁻¹ s⁻¹.

B3: 29G5 (antibody, V domains shown)
VH: QVTLKESGPGILQPSQTLSLTCSFSGFSLSTSDMGVDWIRQPSGKDLEWLAHIWWDDVKRYNPALKSRLTISKDTSSSQVFLMLASVDTADTATYYCARIVSSGYIYYALDYWGQGTSVTVSS
VL: DIQMTQTASSLSASLGDRVTISCRASQDIRNYLNWYQRKPDGTVKLLIYYTSRLHSGVPSRFSGSGSGTDYSLTISNLEQEDIATYFCQQGNTLPLTFGGGTKLEIKR
B3 was tested, and the binding result [1] was “no binding (tested: 0.1 to 100 ng/ml)”, the “Average IC50” value [2] was 0.2 nM and the “Average IC50” value [3] was 0.29 nM. The “Average IC50” value [4] was 4.39 nM, the Kd [5] was 0.329 nM and the koff [5] was 0.000104 s⁻¹. The kon [5] was 316000 M⁻¹ s⁻¹, the Kd [6] was 0.204 nM and the koff [6] was 0.000175 s⁻¹. The kon [6] was 859000 M⁻¹ s⁻¹.

B4: 33C3 (antibody, V domains shown)
VH: B3 VH with M34L, D37G, D46G, L84I, V101G, A109E, L110M
VL: B3 VL with A8T, S22T, R38Q, E79D, K103R
With B4 the binding result [1] was “no binding (tested: 0.1 to 100 ng/ml)”, the “Average IC50” value [2] was 0.1 nM and the “Average IC50” value [3] was 0.15 nM. The “Average IC50” value [4] was 0.847 nM, the Kd [5] was 0.124 nM and the koff [5] was 9.59e-05 s⁻¹. It also gave a kon [5] of 770000 M⁻¹ s⁻¹, a Kd [6] of 0.0639 nM and a koff [6] of 0.000149 s⁻¹. It also gave a kon [6] of 2.33e+06 M⁻¹ s⁻¹.

B5: 1B6 (antibody, V domains shown)
VH: QVQLKESGPGLVAPSQSLSITCTVSGFSLTGYGVNWVRQPPGKGLEWLGMIWGDERIDYNSALKSRLSITKDNSKSQVFLKMNSLQTDDTGRYFCARDGYFPYAMDYWGQGTSVTVSS
VL: NIVLTQSPASLAVSLGQRATISCRASETVDSYGKSYLHWYQQKPGQPPKLLIYLASNLESGVPARFSGSGSRTDFTLIIDPVEADDAATYYCQQNNEGPRTFGGGTKLEIKR
In the case of B5, the binding result [1] is reported as “no binding (tested: 0.1 to 100 ng/ml)”, the “Average IC50” value [2] is reported as 0.24 nM and the “Average IC50” value [3] is reported as 0.84 nM. The “Average IC50” value [4] was 0.521 nM, the Kd [5] was 0.21 nM and the koff [5] was 0.000222 s⁻¹. It also gave a kon [5] of 1.06e+06 M⁻¹ s⁻¹, a Kd [6] of 0.545 nM and a koff [6] of 0.000518 s⁻¹. The kon [6] was 951000 M⁻¹ s⁻¹.

B6: 6C8 (antibody, V domains shown)
VH: B5 VH with G26E, Y32S, G33S, E55G, T70S, G91A, F94Y, F101Y, D106N
VL: B5 VL with T28S, K34N, Y36F, L37M, T73A, I78T, G98N
B6 was tested, and the binding result [1] was “no binding (tested: 0.1 to 100 ng/ml)”, the “Average IC50” value [2] was 0.34 nM and the “Average IC50” value [3] was 0.72 nM. For the same binder, the “Average IC50” value [4] was 0.161 nM, the Kd [5] was 0.403 nM and the koff [5] was 0.000394 s⁻¹. For the same binder, the kon [5] was 978000 M⁻¹ s⁻¹, the Kd [6] was 0.484 nM and the koff [6] was 0.000702 s⁻¹. The kon [6] was 1.45e+06 M⁻¹ s⁻¹.

B7: 5D3 (antibody, V domains shown)
VH: QVQLKESGPGLVAPSQSLSITCTVSGFSLTGYNINWVRQPPGKGLEWLGLIWGDGNTAFNSALKSRLSISKDNSKSQVFLKLNSLQTDDTARYYCARDGYYPYAIKYWGQGTSVTVSS
VL: B5 VL with K34N, Y36F, L37M, I78T, G98D
With B7 the binding result [1] was “no binding (tested: 0.1 to 100 ng/ml)”, the “Average IC50” value [2] was 0.29 nM and the “Average IC50” value [3] was 0.705 nM. For the same binder, the “Average IC50” value [4] was 0.291 nM, the Kd [5] was 0.387 nM and the koff [5] was 0.000584 s⁻¹. The kon [5] was 1.51e+06 M⁻¹ s⁻¹, the Kd [6] was 0.296 nM and the koff [6] was 0.000483 s⁻¹. The kon [6] was 1.63e+06 M⁻¹ s⁻¹.

B8: 3E5 (antibody, V domains shown)
VH: QVQLKESGPGLVAPSQSLSITCTVSGFSLTGSSINWVRQPPGKGLEWLGMIWGDGRIDYNSVLKSRLSISKDSSKSQVFLKMNSLQADDTARYYCARDGYYPYAMVYWGQGTSVTVSS
VL: B5 VL with S22F, T28S, K34N, Y36F, L37M, P44S, I78T, Y90F, G98N
In the case of B8, the binding result [1] is reported as “no binding (tested: 0.1 to 100 ng/ml)”, the “Average IC50” value [2] is reported as 0.3 nM and the “Average IC50” value [3] is reported as 0.13 nM. The “Average IC50” value [4] was 0.161 nM, the Kd [5] was 0.253 nM and the koff [5] was 0.000468 s⁻¹. It also gave a kon [5] of 1.85e+06 M⁻¹ s⁻¹, a Kd [6] of 0.457 nM and a koff [6] of 0.000658 s⁻¹. It also gave a kon [6] of 1.44e+06 M⁻¹ s⁻¹.

B9: 8B6 (antibody, V domains shown)
VH: B7 VH with Y32H, L50M, A58D, Y107F
VL: B5 VL with N1H, K34S, Y36F, N57K, I78T, T106S
With B9 the binding result [1] was “no binding (tested: 0.1 to 100 ng/ml)”, the “Average IC50” value [2] was 0.48 nM and the “Average IC50” value [4] was 0.395 nM. The Kd [5] was 0.976 nM, the koff [5] was 0.00096 s⁻¹ and the kon [5] was 983000 M⁻¹ s⁻¹. For the same binder, the Kd [6] was 0.523 nM, the koff [6] was 0.000607 s⁻¹ and the kon [6] was 1.16e+06 M⁻¹ s⁻¹.

B10: 25C8 (antibody, V domains shown)
VH: QVQLQQPGAELVRPGASVQLSCKASGYTFTSSWIHWVNQRPGQGLEWIGMIHPSDSETRLNQKFKDKATLTVDKSSSTAYMQLSSPTSEDSAVYYCASTATDFDYWGQGTTLTVSS
VL: DVVLTQTPLSLPVNIGDQASISCKSTKSLLNSDGFTYLDWYLQKPGQSPQLLIYLVSNRFSGAPDRFSGSGSGTDFTLKISRVEAEDLGVYYCFQHNYLPLTFGAGTNLELKR
With B10 the binding result [1] was “no binding (tested: 0.1 to 100 ng/ml)”, the “Average IC50” value [2] was 0.26 nM and the “Average IC50” value [3] was 0.23 nM. The “Average IC50” value [4] was 0.188 nM, the Kd [5] was 0.0631 nM and the koff [5] was 8.45e-06 s⁻¹. For the same binder, the kon [5] was 134000 M⁻¹ s⁻¹, the Kd [6] was 0.0754 nM and the koff [6] was 2.6e-05 s⁻¹. It also gave a kon [6] of 345000 M⁻¹ s⁻¹.

B11: 4A8 (antibody, V domains shown)
VH: EVQLQQSGAEFVRPGALVKLSCKASGFNIKDYYMYWVKQRPEQGLEWIGRIDPENGNTIYDPKFQGKASITGDTSSNTAYLQLSSLTSEDTAVYYCARYAYYGPFDYWGQGTTLTVSS
VL: QAVVTQESALTTSPGETVTLTCRSSIGTVTTNNYANWVQEKPDHLFTGLIGSTNNRAPGVPARFSGSLIGDKAALTITGAQTEDEAIYFCALWYSNHWVFGGGTKLTVLG
For B11, the binding result [1] was “no binding (tested: 0.1 to 100 ng/ml)”, the “Average IC50” value [2] was 0.27 nM and the Kd [5] was 0.157 nM. It also gave a Kd [6] of 0.089 nM.
